# Target: RNA polymerase II
# Test: Re-ChIP (IP ERα then IP PolII), real time qPCR
# Conditions: HEK293T cells, read off a plot
# [1] = complement C3 enhancer, cadmium (2 µM) for 60 minutes
# [2] = complement C3 enhancer, control (untreated)
# [3] = complement C3 enhancer, estradiol (100 nM) for 60 minutes
# [4] = lactoferrin enhancer, cadmium (2 µM) for 60 minutes
# [5] = lactoferrin enhancer, control (untreated)
# [6] = lactoferrin enhancer, estradiol (100 nM) for 60 minutes
Substance,response [1] [% Input],response [2] [% Input],response [3] [% Input],response [4] [% Input],response [5] [% Input],response [6] [% Input]
wild-type estrogen receptor alpha (from UniProt P03372) D538G,0.019,0.0076,0.0077,0.014,0.0046,0.0061
wild-type estrogen receptor alpha (from UniProt P03372) Y537S,0.015,0.0065,0.0073,0.0063,0.0022,0.0022

# Source: PMC11341946
